Data on one substance can be found in article doi:10.1101/2022.07.11.499521.

For the assay, the target named is Vairimorpha necatrix 20S proteasome core particle (Vairimorpha necatrix (endogenous in spores)). The experiment in a line: cryo-EM structure.

“Vairimorpha necatrix 19S regulatory particle (complex)” gave a percent of proteasome particles capped by RP of 12%.
